This note sets out measurements from patent publication US7223902B1, “Method of producing recombinant Aspergillus niger β-glucosidase and an aroma spreading plant” (Yissum Research Development Company of the Hebrew …, priority 1999, dated 2007).

Data set [1] deals with 2-deoxy-2-fluoroglucosyl-BGL1. In words: Reactivation of 2FGlcF-inactivated enzyme in the presence of linamarin. Format: biochemical, Aspergillus niger. The following applies: linamarin 0-16 mM, pH=4.8, 50° C., 0, 10, 20 and 30 min. The protocol:
Reactivation rates were determined as follows: pure A. niger β-glucosidase (0.34 mg/ml) was preincubated with 2FGlcF (5 mM) for 15 min, after which the excess of the inactivator was diafiltered by 20-kDa nominal molecular mass cutoff centrifugal concentrators (Sartorius Inc., Goettingen, Germany). Samples of the purified, inactivated enzyme were incubated in the presence linamarin (0-16 mM) in citrate buffer (30 mM, pH=4.8) at 50° C. for 0, 10, 20 and 30 minutes, and the activity of each sample was determined using p-nitrophenyl β-D-glucopyranoside (pNPGlc) as a substrate.
Rates of reactivation of 2-deoxy-2-fluoroglucosyl-BGL1 were determined in the presence of different concentrations of linamarin by monitoring activity regain after 0, 10, 20 and 30 min (FIG. 9).

Data set [2] concerns the target A. niger β-Glucosidase (BGL1). Description: Inactivation of A. niger β-glucosidase by 2FGlcF, residual activity with DNPGlc. It counts as biochemical, Aspergillus niger. The following applies: 30 mM citrate buffer pH=4.8, 50° C., 0.5-6 mM inactivator. The procedure: Pure A. niger β-Glucosidase enzyme (0.47 mg/ml) was incubated in the presence of various concentrations of 2-deoxy-2-fluoro-β-glucosyl fluoride (2FGlcF, 0.5-6 mM) in 30 mM citrate buffer pH=4.8 at 50° C. Residual enzyme activity was determined at different time intervals by addition of an aliquot (10 μl) of the inactivation mixture, to a solution containing citrate buffer (30 mM, pH=4.8), BSA (8 μg) and 2,4-dinitrophenyl β-D-glucopyranoside (DNPGlc, 0.625 mM, 830 μl). Release of DNP was determined spectrophotometrically by measuring the absorbance at 400 nm one minute after the addition of the substrate.
Enzyme was incubated in the presence of various concentrations of 2FGlcF and residual enzyme activity was monitored at different time intervals.

The nature of data set [3]: SDS-PAGE activity gel staining (MUGlc) of transgenic tobacco plant extracts. Format: biochemical, Nicotiana tabacum cv. Samson. The note with it: number of tobacco regenerates with BGL1 activity. The procedure:
Detection of β-glucosidase in polyacrylamide gels was carried out by washing the SDS-polyacrylamide gel with 1:1 isopropanol:PC buffer to remove SDS and renature the enzyme. The gel was washed once in PC buffer and incubated in a thin layer of a solution of 0.5 mM MUGlc. After incubation at 50° C. for one hour, the active protein band was visualized by UV light.
Western blot (40) and SDS-PAGE activity gel staining (37) were employed to screen successful transgenic lines, using the purified A. niger BGL1 protein as positive controls and non-transgenic plant as negative control.

Data set [4] can be described thus: Quantitative β-glucosidase assay using pNPGlc as a substrate. Format: biochemical. The procedure: Quantitative assays were performed using pNPGlc as a substrate according to Shoseyov (7).
The nature of data set [5]: Determination of thermal stability of A. niger β-glucosidase (standard pNPGlc assay). Format: physicochemical. The following applies: for % activity: percent of enzyme solution kept at 4° C., pH=5. The procedure:
Determination of Thermal Stability of A. niger β-Glucosidase:
Recombinant enzyme (40 μg/ml) was dissolved in 20 mM citrate phosphate buffer, pH=5. Each tested sample (8 μl) was covered by 15 μl mineral oil. The activity was determined by the standard pNPGlc assay (7).
Thermal stability of the recombinant enzyme was evaluated at different temperatures, presented as percent enzymatic activity relative to an enzyme solution kept at 4° C. Results obtained are summarized in Table 2 and illustrated in FIG. 10.

In the case of `CC(C)(C#N)O[C@@H]1O[C@H](CO)[C@@H](O)[C@H](O)[C@H]1O` [linamarin], the “regain of activity of 2-deoxy-2-fluoroglucosyl-BGL1” value in data set [1] was “followed a first order process”.
As to `OC[C@H]1O[C@@H](F)[C@H](F)[C@@H](O)[C@@H]1O` [2FGlcF, 2-deoxy-2-fluoro β-glucosyl fluoride], in data set [2], the KI (inactivation) was 35.4 mM and the “pseudo-first order rate constant Ki for inactivation” value is 4.5 min⁻¹.

B1: BGL1: BGL1 without a signal peptide expressed in tobacco plants (plasmid pJDB1, SEQ ID NO:14) (protein)
chain: DELAYSPPYYPSPWANGQGDWAQAYQRAVDIVSQMTLDEKVNLTTGTGWELELCVGQTGGVPRLGVPGMCLQDSPLGVRDSDYNSAFPAGMNVAATWDKNLAYLRGKAMGQEFSDKGADIQLGPAAGPLGRSPDGGRNWEGFSPDPALSGVLFAETIKGIQDAGVVATAKHYIAYEQEHFRQAPEAQGFGFNISESGSANLDDKTMHELYLWPFADAIRAGAGAVMCSYNQINNSYGCQNSYTLNKLLKAELGFQGFVMSDWAAHHAGVSGALAGLDMSMPGDVDYDSGTSYWGTNLTISVLNGTVPQWRVDDMAVRIMAAYYKVGRDRLWTPPNFSSWTRDEYGYKYYYVSEGPYEKVNQYVNVQRNHSELIRRIGADSTVLLKNDGALPLTGKERLVALIGEDAGSNPYGANGCSDRGCDNGTLAMGWGSGTANFPYLVTPEQAISNEVLKHKNGVFTATDNWAIDQIEALAKTASVSLVFVNADSGEGYINVDGNLGDRRNLTLWRNGDNVIKAAASNCNNTIVVIHSVGPVLVNEWYDNPNVTAILWGGLPGQESGNSLADVLYGRVNPGAKSPFTWGKTREAYQDYLVTEPNNGNGAPQEDFVEGVFIDYRGFDKRNETPIYEFGYGLSYTTFNYSNLEVQVLSAPAYEPASGETEAAPTFGEVGNASDYLYPSGLLRITKFIYPWLNGTDLEASSGDASYGQDSSDYLPEGATDGSAQPILPAGGGPGGNPRLYDELIRVSVTIKNTGKVAGDEVPQLYVSLGGPNEPKIVLRQFERITLQPSEETKWSTTLTRRDLANWNVEKQDWEITSYPKMVFVGSSSRKLPLRASLPTVH
B1: the Activity gel positive in data set [3] was found to be 0.

B2: recombinant BGL1: Recombinant Aspergillus niger B1 β-glucosidase (SEQ ID NO:2) expressed from bgl1 cDNA in P. pastoris, S. cerevisiae or E. coli (protein)
chain: MRFTLIEAVALTAVSLASADELAYSPPYYPSPWANGQGDWAQAYQRAVDIVSQMTLDEKVNLTTGTGWELELCVGQTGGVPRLGVPGMCLQDSPLGVRDSDYNSAFPAGMNVAATWDKNLAYLRGKAMGQEFSDKGADIQLGPAAGPLGRSPDGGRNWEGFSPDPALSGVLFAETIKGIQDAGVVATAKHYIAYEQEHFRQAPEAQGFGFNISESGSANLDDKTMHELYLWPFADAIRAGAGAVMCSYNQINNSYGCQNSYTLNKLLKAELGFQGFVMSDWAAHHAGVSGALAGLDMSMPGDVDYDSGTSYWGTNLTISVLNGTVPQWRVDDMAVRIMAAYYKVGRDRLWTPPNFSSWTRDEYGYKYYYVSEGPYEKVNQYVNVQRNHSELIRRIGADSTVLLKNDGALPLTGKERLVALIGEDAGSNPYGANGCSDRGCDNGTLAMGWGSGTANFPYLVTPEQAISNEVLKHKNGVFTATDNWAIDQIEALAKTASVSLVFVNADSGEGYINVDGNLGDRRNLTLWRNGDNVIKAAASNCNNTIVVIHSVGPVLVNEWYDNPNVTAILWGGLPGQESGNSLADVLYGRVNPGAKSPFTWGKTREAYQDYLVTEPNNGNGAPQEDFVEGVFIDYRGFDKRNETPIYEFGYGLSYTTFNYSNLEVQVLSAPAYEPASGETEAAPTFGEVGNASDYLYPSGLLRITKFIYPWLNGTDLEASSGDASYGQDSSDYLPEGATDGSAQPILPAGGGPGGNPRLYDELIRVSVTIKNTGKVAGDEVPQLYVSLGGPNEPKIVLRQFERITLQPSEETKWSTTLTRRDLANWNVEKQDWEITSYPKMVFVGSSSRKLPLRASLPTVH
modifications: Aspergillus niger
Regarding B2, the β-glucosidase activity entry in data set [4] (overexpressed in E. coli, E. coli extracts) was “No apparent β-glucosidase activity could be detected”. In data set [4] (secreted by P. pastoris to the medium, without further purification), this molecule gave a specific activity of 124 units/mg protein. Moreover, the “% activity” value in data set [5] (4 °C) stood at 100%; in data set [5] (50 °C), 91.5%; in data set [5] (55 °C), 83.5%; in data set [5] (60 °C) it was 68%; in data set [5] (65 °C), 17.8%. The “% activity retained” value in data set [5] (after 1 hour incubation at 60° C., percent activity of an enzyme kept at 4° C.) is listed as 68%. For the same molecule, the activity maintained result in data set [5] (temperature ranging from 4-60° C.) was “above 50%”.
